B1: ARA54: 54 kDa protein that interacts with AR in an androgen-dependent manner; AR coactivator (protein)
chain: MSSEDREAQEDELLALASIYDGDEFRKAESVQGGETRIYLDLPQNFKIFVSGNSNECLQNSGFEYTICFLPPLVLNFELPPDYPSSSPPSFTLSGKWLSPTQLSALCKHLDNLWEEHRGSVVLFAWMQFLKEETLAYLNIVSPFELKIGSQKKVQRRTAQASPNTELDFGGAAGSDVDQEEIVDERAVQDVESLSNLIQEILDFDQAQQIKCFNSKLFLCSICFCEKLGSECMYFLECRHVYCKACLKDYFEIQIRDGQVQCLNCPEPKCPSVATPGQVKELVEAELFARYDRLLLQSSLDLMADVVYCPRPCCQLPVMQEPGCTMGICSSCNFAFCTLCRLTYHGVSPCKVTAEKLMDLRNEYLQADEANKRLLDQRYGKRVIQKALEEMESKEWLEKNSKSCPCCGTPIEKLDGCNKMTCTGCMQYFCWICMGSLSRANPYKHFNDPGSPCFNRLFYAVDVDDDIWEDEVED
B2: C′-ARA54: C-terminal region (amino acids 361-474) of ARA54 (protein)
chain: RNEYLQADEANKRLLDQRYGKRVIQKALEEMESKEWLEKNSKSCPCCGTPIEKLDGCNKMTCTGCMQYFCWICMGSLSRANPYKHFNDPGSPCFNRLFYAVDVDDDIWEDEVED
modifications: Homo sapien
notes: C-terminal region (amino acids 361-474) of ARA54

Experiments:
AR = AR transactivation assay, MMTV-CAT reporter, transient transfection (Example 1); assay type: cell-based, human
Protocol: Human prostate cancer DU145 or PC3 cells, or human lung carcinoma cells NCI H1299 were grown in Dulbecco's minimal essential medium (DMEM) containing penicillin (25 U/ml), streptomycin (25˜g/ml), and 5% fetal calf serum (FCS). One hour before transfection, the medium was changed to DMEM with 5% charcoal-stripped FCS. […] A β-galactosidase expression plasmid, pCMV-β-gal, was used as an internal control for transfection efficiency.
The medium was changed 24 hr posttransfection and the cells treated with either steroid hormones or hydroxyflutamide, and cultured for an additional 24 hr. Cells were harvested and assayed for CAT activity after the cell lysates were normalized by using β-galactosidaseas an internal control. Chloramphenicol acetyltransferase (CA) activity was visualized by PhosphorImager (Molecular Dynamics) and quantitated by ImageQuant software (Molecular Dynamics).

GR = target: T1, GR (Homo sapiens, UniProt P04150); assay: GR transactivation reporter gene assay (Example 2); assay type: cell-based; parameters: expressed in transfected cells; host or cells: PC-3
T1 sequence (P04150 1-777): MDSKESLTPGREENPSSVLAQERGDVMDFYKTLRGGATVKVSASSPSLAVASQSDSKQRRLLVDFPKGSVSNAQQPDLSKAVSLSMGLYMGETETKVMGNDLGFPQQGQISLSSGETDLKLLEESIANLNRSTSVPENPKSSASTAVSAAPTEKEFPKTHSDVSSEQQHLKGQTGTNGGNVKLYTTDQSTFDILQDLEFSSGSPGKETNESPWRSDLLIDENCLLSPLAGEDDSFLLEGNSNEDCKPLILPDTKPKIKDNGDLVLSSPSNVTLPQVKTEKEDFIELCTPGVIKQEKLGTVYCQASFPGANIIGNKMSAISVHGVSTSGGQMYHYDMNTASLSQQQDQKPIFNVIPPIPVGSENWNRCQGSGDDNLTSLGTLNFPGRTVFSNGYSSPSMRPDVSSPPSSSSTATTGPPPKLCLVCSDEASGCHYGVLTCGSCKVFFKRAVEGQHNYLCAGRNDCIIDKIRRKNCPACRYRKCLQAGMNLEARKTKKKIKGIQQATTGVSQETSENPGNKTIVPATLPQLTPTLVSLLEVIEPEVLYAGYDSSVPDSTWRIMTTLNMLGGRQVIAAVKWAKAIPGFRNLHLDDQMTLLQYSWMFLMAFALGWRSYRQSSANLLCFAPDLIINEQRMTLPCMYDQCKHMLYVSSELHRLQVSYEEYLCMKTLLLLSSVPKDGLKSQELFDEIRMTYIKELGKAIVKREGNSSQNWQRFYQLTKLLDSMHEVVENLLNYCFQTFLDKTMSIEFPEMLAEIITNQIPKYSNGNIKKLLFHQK
Protocol: 12. […] PC-3 (A) or DU145 (B) cells were transfected with MMTV-CAT (2.5 μg), steroid receptor expression plasmid (AR, PR, or GR; 1.0 μg for PC-3 and 0.75 μg for DU145), and pSG5-C′-ARA54 (C′) or pSG5-mt-ARA54 (mt) (8.0 μg for PC-3 and 6.75 μg for DU145), with (for DU145) or without (for PC-3) pSG5-fl-ARA54 (2.25 μg). The total amount of DNA was adjusted to 12.5-13.25 μg with pSG5 for each transfection. […] The CAT activity is presented relative to that of vector alone with cognate ligand in each panel (black bars; set as 100%). Values represent the mean±SD of at least three determinations.
394. The human prostate cancer cell lines, LNCaP, PC-3, and DU145, were maintained in Dulbecco's minimum essential medium (DMEM) containing 5% fetal calf serum (FCS). Transfections using the calcium phosphate precipitation method and chloramphenicol acetyltransferase (CAT) and luciferase (Luc) assays were performed as previously described (Miyamoto et al. (1998) Proc. Natl. Acad. Sci. U.S.A. 95, 7379-7384; Yeh et al. (1999) Endocrine 11, 195-202; Miyamoto et al. (1998) Proc. Natl. Acad. Sci. U.S.A. 95, 11083-11088). Briefly, 1-4×10^5 cells were plated on 35-mm or 60-mm dishes 24 h before adding the precipitation mix containing a CAT or Luc reporter gene and a β-galactosidase expression plasmid (pCMV-β-gal) as an internal control for normalization of transfection efficiency. The medium was changed to phenol-red-free DMEM with 5% charcoal-stripped FCS 1 h before transfection. In each experiment, the total amount of transfected DNA per dish was maintained as a constant by addition of empty expression vector (pSG5 or pVP16, as appropriate). […] The cells were then harvested and whole cell extracts were used for CAT or Luc assay. The CAT activity was quantitated with a PhosphorImager (Molecular Dynamics). The Luc assay was determined using a Dual-Luciferase Reporter Assay System (Promega) and luminometer.

Chain of AR (P10275 whole entry): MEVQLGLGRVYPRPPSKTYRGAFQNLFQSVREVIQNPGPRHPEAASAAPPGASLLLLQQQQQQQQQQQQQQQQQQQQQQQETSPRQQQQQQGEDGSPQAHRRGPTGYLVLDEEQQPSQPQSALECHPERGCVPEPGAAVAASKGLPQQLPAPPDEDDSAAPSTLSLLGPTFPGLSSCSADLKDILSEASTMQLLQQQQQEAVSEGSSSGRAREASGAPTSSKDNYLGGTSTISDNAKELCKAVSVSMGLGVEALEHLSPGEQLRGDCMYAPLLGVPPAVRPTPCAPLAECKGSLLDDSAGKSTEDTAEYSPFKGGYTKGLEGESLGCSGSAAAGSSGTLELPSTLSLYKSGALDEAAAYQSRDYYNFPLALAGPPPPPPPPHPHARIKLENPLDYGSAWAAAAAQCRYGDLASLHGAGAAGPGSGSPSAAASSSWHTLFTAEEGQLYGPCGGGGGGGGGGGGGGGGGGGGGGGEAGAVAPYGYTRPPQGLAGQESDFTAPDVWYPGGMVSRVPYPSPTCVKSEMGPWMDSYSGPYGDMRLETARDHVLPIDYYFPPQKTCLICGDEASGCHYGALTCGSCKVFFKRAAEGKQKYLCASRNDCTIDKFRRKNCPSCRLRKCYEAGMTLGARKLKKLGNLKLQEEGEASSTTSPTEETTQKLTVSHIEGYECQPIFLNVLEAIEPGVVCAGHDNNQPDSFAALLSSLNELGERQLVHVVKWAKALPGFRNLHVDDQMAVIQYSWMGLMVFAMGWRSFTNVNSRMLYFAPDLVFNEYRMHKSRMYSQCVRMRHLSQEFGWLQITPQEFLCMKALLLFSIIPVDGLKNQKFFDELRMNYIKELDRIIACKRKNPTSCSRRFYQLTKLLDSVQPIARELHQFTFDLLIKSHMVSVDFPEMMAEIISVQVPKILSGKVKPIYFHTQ

Molecule	enhancement of the transcription activity of AR (AR; DU145 cells)	enhancement of wtAR transactivation by coexpression (AR; wtAR, DHT 10^−10 to 10^−8 M)	induction of GR transcription activity (GR; DU145 cells, cotransfected with GR) [fold]	inhibition of AR-mediated transcription (AR; H1299 cells, endogenous ARA54)	effect on fl-ARA54-induced GR transactivation (GR; DU145 cells)	effect on GR transactivation (GR; PC-3 cell line)
B1	up to 6 fold	3-5 fold	1.6			
B2				up to 70%	little effect	only marginally repressed
